Measured values from IntAct's records for PubMed 29039417.

B1: Protein PTHB1 (Homo sapiens), Q3SYG4 (parent)
chain: MSLFKARDWWSTILGDKEEFDQGCLCLANVDNSGNGQDKIIVGSFMGYLRIFSPHPAKTGDGAQAEDLLLEVDLRDPVLQVEVGKFVSGTEMLHLAVLHSRKLCVYSVSGTLGNVEHGNQCQMKLMYEHNLQRTACNMTYGSFGGVKGRDLICIQSMDGMLMVFEQESYAFGRFLPGFLLPGPLAYSSRTDSFLTVSSCQQVESYKYQVLAFATDADKRQETEQQKLGSGKRLVVDWTLNIGEQALDICIVSFNQSASSVFVLGERNFFCLKDNGQIRFMKKLDWSPSCFLPYCSVSEGTINTLIGNHNNMLHIYQDVTLKWATQLPHIPVAVRVGCLHDLKGVIVTLSDDGHLQCSYLGTDPSLFQAPNVQSRELNYDELDVEMKELQKIIKDVNKSQGVWPMTEREDDLNVSVVVSPNFDSVSQATDVEVGTDLVPSVTVKVTLQNRVILQKAKLSVYVQPPLELTCDQFTFEFMTPDLTRTVSFSVYLKRSYTPSELEGNAVVSYSRPTDRNPDGIPRVIQCKFRLPLKLICLPGQPSKTASHKITIDTNKSPVSLLSLFPGFASQSDDDQVNVMGFHFLGGARITVLASKTSQRYRIQSEQFEDLWLITNELILRLQEYFEKQGVKDFACSFSGSIPLQEYFELIDHHFELRINGEKLEELLSERAVQFRAIQRRLLARFKDKTPAPLQHLDTLLDGTYKQVIALADAVEENQGNLFQSFTRLKSATHLVILLIALWQKLSADQVAILEAAFLPLQEDTQELGWEETVDAAISHLLKTCLSKSSKEQALNLNSQLNIPKDTSQLKKHITLLCDRLSKGGRLCLSTDAAAPQTMVMPGGCTTIPESDLEERSVEQDSTELFTNHRHLTAETPRPEVSPLQGVSE
partner: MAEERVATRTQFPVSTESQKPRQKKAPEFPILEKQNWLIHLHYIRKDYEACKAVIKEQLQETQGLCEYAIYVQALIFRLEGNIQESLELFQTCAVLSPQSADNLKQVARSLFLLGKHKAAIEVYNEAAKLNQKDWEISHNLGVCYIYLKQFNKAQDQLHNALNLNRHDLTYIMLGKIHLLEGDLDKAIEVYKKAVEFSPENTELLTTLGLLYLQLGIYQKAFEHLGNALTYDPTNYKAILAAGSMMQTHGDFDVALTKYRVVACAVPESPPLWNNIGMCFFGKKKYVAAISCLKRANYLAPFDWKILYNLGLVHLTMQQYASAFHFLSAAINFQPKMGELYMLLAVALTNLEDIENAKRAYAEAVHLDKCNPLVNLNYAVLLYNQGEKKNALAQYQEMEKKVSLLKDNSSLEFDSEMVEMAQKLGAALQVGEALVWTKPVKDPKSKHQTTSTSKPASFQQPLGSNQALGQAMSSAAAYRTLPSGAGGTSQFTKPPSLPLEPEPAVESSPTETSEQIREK

Variants of: B1
Conditions: with bbs4_human BBS4, Q96RK4

Row | Variant | effect of a mutation on the interaction
1 | R514E | with no effect
2 | R514K | with no effect
3 | N515A | with no effect
4 | N515C | disrupting interaction strength
5 | N515E | with no effect
6 | N515K | with no effect
7 | P516A | with no effect
8 | P516E | with no effect
9 | P516K | with no effect
10 | D517A | with no effect
11 | D517E | with no effect
12 | D517K | with no effect
13 | G518A | with no effect
14 | G518E | with no effect
15 | G518K | with no effect
16 | I519A | with no effect
17 | I519E | with no effect
18 | I519K | with no effect
19 | P520A | with no effect
20 | P520E | with no effect
21 | P520K | with no effect
22 | R521A | with no effect
23 | R521E | with no effect

Row | Variant | effect of a mutation on the interaction
24 | R521K | with no effect
25 | V522A | with no effect
26 | V522E | with no effect
27 | V522K | with no effect
28 | I523A | with no effect
29 | I523E | with no effect
30 | I523K | with no effect
31 | Q524A | with no effect
32 | Q524E | with no effect
33 | Q524K | with no effect
34 | C525A | with no effect
35 | C525E | with no effect
36 | C525K | with no effect
37 | K526A | with no effect
38 | K526E | with no effect
39 | F527A | with no effect
40 | F527E | with no effect
41 | F527K | with no effect
42 | R528A | with no effect
43 | R528E | with no effect
44 | R528K | with no effect
45 | L529A | with no effect
46 | L529E | with no effect

Row | Variant | effect of a mutation on the interaction
47 | L529K | with no effect
48 | L529P | disrupting interaction strength
49 | P530A | with no effect
50 | P530E | with no effect
51 | P530K | with no effect
52 | P530L | disrupting interaction strength
53 | P530S | disrupting interaction strength
54 | L531A | with no effect
55 | L531E | with no effect
56 | L531K | with no effect
57 | K532A | with no effect
58 | K532E | with no effect
59 | L533A | with no effect
60 | L533E | with no effect
61 | L533K | with no effect
62 | I534A | with no effect
63 | I534E | with no effect
64 | I534K | with no effect
65 | C535A | with no effect
66 | C535E | with no effect
67 | C535K | with no effect
68 | L536A | with no effect
69 | L536E | with no effect

Row | Variant | effect of a mutation on the interaction
70 | L536K | with no effect
71 | P537A | with no effect
72 | P537E | with no effect
73 | P537K | with no effect
74 | P537L | disrupting interaction strength
75 | G538A | with no effect
76 | G538E | with no effect
77 | G538K | with no effect
78 | Q539A | with no effect
79 | Q539E | with no effect
80 | Q539K | with no effect
81 | P540A | with no effect
82 | P540E | with no effect
83 | P540K | with no effect
84 | S541A | with no effect
85 | S541E | with no effect
86 | S541K | with no effect
87 | K542A | with no effect
88 | K542E | with no effect
89 | T543A | with no effect
90 | T543E | with no effect
91 | T543K | with no effect
92 | A544E | with no effect
